Results from paper PMC11719512, “Exploring the Binding Mechanism of ADGRG2 Through Metadynamics and Biochemical Analysis” (International Journal of Molecular Sciences, 2024).
Substitutions are numbered along the chain they refer to. Names and notes keep the numbering of the source.

Assays:
ADGRG2 [1] = details: cited from earlier work; for activity on ADGRG2 (agonist or antagonist): steroid hormones, endogenous, ref [23]
From the text: Stachel (sequence: TSFGILLDLSRTSLP, with individual residues numbered from ss01 to ss15, where “ss” denotes Stachel sequence) is a key functional element of ADGRG2, playing a critical role in regulating the conformation and function of the receptor [8]. The Stachel sequence plays a pivotal role in receptor activation by mediating ligand binding and initiating the conformational changes required for signal transduction, highlighting its biological significance. In previous studies, the wild-type ADGRG2 Stachel sequence-derived peptidic agonist, VPM, was found t ... || Figure 1 Structural and binding analysis of ADGRG2 with agonists and antagonists. (A) Structure of ADGRG2, highlighting key domains involved in ligand binding. Identified agonists (DHEA, DHEAS, IP15) and antagonists (DOC, F601D, F601E) are labeled. […] (B) Schematic representation of metadynamics simulations and ligand binding assay conducted to investigate the binding mechanisms of antagonists F601D, F601E, and DOC to ADGRG2. (C) Structural representation of ADGRG2 in complex wi ...

[2] = test system: ADGRG2 (Nluc-ADGRG2 and its alanine mutants); test: FlAsh-BRET / BRET-based ligand binding assay with ADGRG2 mutants; details: HEK293, competition with 50 μM IP15–FITC, 10^−9 to 10^−4 M competitor, HBSS, 40 min at 37 °C; mean ± SEM, n = 3
Procedure: HEK293 cells were transiently transfected with plasmids for Nluc-ADGRG2 and its various mutants (ADGRG2-T624A, ADGRG2-C628A, ADGRG2-N668A, ADGRG2-Y758A, ADGRG2-K760A, ADGRG2-D768A, ADGRG2-N773A, ADGRG2-N775A, ADGRG2-N849A, ADGRG2-N860A). The cells were plated at a density of 3 × 10^4 per well in a black 96-well plate and cultured for 48 h at 37 °C with 5% CO2. To assess saturation binding, increasing concentrations of FITC-labeled IP15 (IP15–FITC) were added, alongside or without 300 μM of unlabeled IP15, for a 40-min incubation at 37 °C. For competitive binding assays, cells were treated with 50 μM IP15–FITC and varying concentrations (10^−9 to 10^−4 M) of competing peptides in HBSS buffer (containing 25 mM HEPES, 10 mM glucose, 146 mM NaCl, 5 mM KCl, 1 mM MgSO4, 2 mM sodium pyruvate, and 1.3 mM CaCl2) for 40 min at 37 °C. Coelenterazine H (final concentration of 5 μM, Promega) was added just before measuring BRET signals using a Mithras LB 940 Multimode Microplate Reader. Light emissions were recorded at 460 nm (80 nm bandpass) and 535 nm (60 nm bandpass) for IP15–FITC, and the raw BRET ratio was calculated as the 535 nm emission divided by the 460 nm emission.

DOC = test: BRET-based binding assay; details: parent: est. -7.3; read off a plot
ADGRG2 [3] = test: cAMP accumulation assay (GloSensor) with wild-type ADGRG2 and mutants; format: cell-based; details: HEK293, GloSensor; agonist IP15 alone, then with antagonist; mean ± SEM, n = 3
Procedure: To assess the cAMP accumulation induced by receptor activation, HEK293 cells were transfected with plasmids for wild-type ADGRG2 or its mutants (ADGRG2-T624A, ADGRG2-C628A, ADGRG2-N668A, ADGRG2-Y758A, ADGRG2-K760A, ADGRG2-D768A, ADGRG2-N773A, ADGRG2-N775A, ADGRG2-N849A, ADGRG2-N860A) alongside the GloSensor plasmid or an empty vector (pcDNA3.1). Following a 24-h incubation at 37 °C with 5% CO2, the transfected cells were plated at a density of 4 × 10^4 per well in 96-well plates and incubated for an additional 24 h. The cells were then pre-treated with serum-free medium containing 5% (v/v) GloSensor cAMP reagent stock solution for 2 h. cAMP signals induced by IP15 were measured immediately after adding the agonists. Luminescence was recorded for at least 20 min per well, and the data were analyzed using sigmoidal dose–response functions in GraphPad Prism v.9.0.

VPM-F601E, Q8CJ12 = target: T1, VPM-F601E, Q8CJ12; test: BRET-based binding assay; details: chain shown with the change;, read off a plot
T1 chain: TSEGILLDLSRTSLP

VPM-F601D, Q8CJ12 = target: T2, VPM-F601D, Q8CJ12; test: BRET-based binding assay; details: chain shown with the change;; parent: est. -8.0; read off a plot
T2 chain: TSDGILLDLSRTSLP

C[C@]12CC[C@H](O)CC1=CC[C@@H]1[C@@H]2CC[C@]2(C)C(=O)CC[C@@H]12 [DHEA, dehydroepiandrosterone]
activity on ADGRG2 (agonist or antagonist) (ADGRG2 [1]): endogenous agonists

deoxycorticosterone [DOC]
binding to ADGRG2 with mutated polar residues (C628, N668, K760, D768, N860) [2]: significantly weakened DOC’s ability to bind to ADGRG2 | activity on ADGRG2 (agonist or antagonist) (ADGRG2 [1]): endogenous antagonist

Nluc-ADGRG2 (wild type) (from UniProt Q8CJ12) D768A
IC50 (DOC): -5.9 log10(M)

IS 4PH GILLDLSRTSLP [IP15]
IP15-induced cAMP accumulation, effect of ADGRG2 mutations (ADGRG2 [3]): the effects of these mutations are specific to the antagonists and not due to disruption of interactions between receptor residues that contribute to agonist-induced activation | agonistic activity / receptor state stabilised (ADGRG2 [1]; Stachel-derived peptides, earlier work, ref [8],[11]): superior agonistic activity

Nluc-ADGRG2 (wild type) (from UniProt Q8CJ12) K760A
IC50 (DOC): -5.6 log10(M)

C[C@]12CC[C@H](OS(=O)(=O)O)CC1=CC[C@@H]1[C@@H]2CC[C@]2(C)C(=O)CC[C@@H]12 [DHEAS]
activity on ADGRG2 (agonist or antagonist) (ADGRG2 [1]): endogenous agonists

B1: Nluc-ADGRG2 (wild type), Q8CJ12 Y758A (protein)
chain: LKENGNSSLLSPSAESSLVSLIPYSNGTPDAASEVLSTLNKTEKSKITIVKTFNASGVKSQRNICNLSSLCNDSVFFRGEIVFQHDEDHNVTQNQDTANGTFAGVLSLSELKRSELNKTLQTLSETYFIVCATAEAQSTVNCTFTVKLNETMNVCAMMVTFQTVQIRPMEQCCCSPRTPCPSSPEELEKLQCELQDPIVCLADQPHGPPLSSSSKPVVPQATIISHVASDFSLAEPLDHALMTPSTPSLTQESNLPSPQPTIPLASSPATDLPVQSVVVSSLPQTDLSHTLSPVQSSIPSPTTPAPSVPTELVTISTPPGETVVNTSTVSDLEAQVSQMEKALSLGSLEPNLAGEMVNRVSKLLHSPPALLAPLAQRLLKVVDAIGLQLNFSSTTISLTSPSLALAVIRVNASNFNTTTFAAQDPTNLQVSLETPPPENSIGAITLPSSLMNNLPANDVELASRIQFNFFETPALFQDPSLENLTLISYVISSSVTNMTIKNLTRNVTVALKHINPSPDDLTVKCVFWDLGRNGGKGGWSSDGCSVKDKRMNETICTCSHLTSFGILLDLSRTSLPPSQMMALTFITYIGCGLSSIFLSVTLVTYIAFEKIRRDYPSKILIQLCAALLLLNLIFLLDSWIALYNTRGFCIAVAVFLHYFLLVSFTWMGLEAFHMYLALVKVFNTYIRKYILKFCIVGWGIPAVVVSIVLTISPDNYGIGSAGKFPNGTPDDFCWINSNVVFYITVVGYFCVIFLLNVSMFIVVLVQLCRIKKKKQLGAQRKTSIQDLRSIAGLTFLLGITWGFAFFAWGPVNVTFMYLFAIFNTLQGFFIFIFYCAAKENVRKQWRRYLCCGKL
IC50 (VPM-F601E, Q8CJ12; parent: est. -8.5): -7.1 log10(M)

B2: Nluc-ADGRG2 (wild type), Q8CJ12 K760A (protein)
chain: B1 chain with A721Y, K723A
IC50 (VPM-F601D, Q8CJ12): -7.7 log10(M) | IC50 (VPM-F601E, Q8CJ12; parent: est. -8.5): -7 log10(M)

B3: Nluc-ADGRG2 (wild type), Q8CJ12 N849A (protein)
chain: B1 chain with A721Y, N812A
IC50 (VPM-F601D, Q8CJ12): -7.9 log10(M)

B4: Nluc-ADGRG2 (wild type), Q8CJ12 N773A (protein)
chain: B1 chain with A721Y, N736A
IC50 (VPM-F601D, Q8CJ12): -6.2 log10(M)

B5: Nluc-ADGRG2 (wild type), Q8CJ12 N775A (protein)
chain: B1 chain with A721Y, N738A
IC50 (VPM-F601D, Q8CJ12): -7.6 log10(M) | IC50 (VPM-F601E, Q8CJ12; parent: est. -8.1): -5.4 log10(M)
